± gives the standard deviation of the averaged measurements.
Columns and labels:
MCF7 = assay: percentage of EdU-negative (G0-arrested) nuclei per well, 72 h; higher = more G0 arrest; settings: reference: sequence is the full UniProt precursor, the tested protein was the secreted form or ectodomain
hTERT-HMEC = assay: as above; settings: reference: sequence is the full UniProt precursor, the tested protein was the secreted form or ectodomain
[1] = protein concentration 0.0254286 µM
[2] = protein concentration 0.254286 µM
[3] = protein concentration 0.0225 µM
[4] = protein concentration 0.01525 µM
[5] = protein concentration 0.1525 µM
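Further: secreted proteins added to cultured cells, EdU pulse at the end, nuclei found by Hoechst imaging, EdU status from nuclear versus surrounding ring intensity ratio, PBS as neutral control.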

Sequence | percentage of EdU-negative (MCF7; [3]) [%] | percentage of EdU-negative (MCF7; protein concentration 0.225 µM) [%] | percentage of EdU-negative (hTERT-HMEC; [3]) [%] | percentage of EdU-negative (hTERT-HMEC; protein concentration 0.225 µM) [%] | other results
MGLTLLLLLLLGLEGQGIVGSLPEVLQAPVGSSILVQCHYRLQDVKAQKVWCRFLPEGCQPLVSSAVDRRAPAGRRTFLTDLGGGLLQVEMVTLQEEDAGEYGCMVDGARGPQILHRVSLNILPPEEEEETHKIGSLAENAFSDPAGSANPLEPSQDEKSIPLIWGAVLLVGLLVAAVVLFAVMAKRKQGNRLGVCGRFLSSRVSGMNPSSVVHHVSDSGPAAELPLDVPHIRLDSPPSFDNTTYTSLPLDSPSGKPSLPAPSSLPPLPPKVLVCSKPVTYATVIFPGGNKGGGTSCGPAQNPPNNQTPSS [Q86YW5] | – | – | – | – | percentage of EdU-negative (MCF7; [1]): 20.7 ± 3.4%; percentage of EdU-negative (MCF7; [2]): 26 ± 4.5%; percentage of EdU-negative (hTERT-HMEC; [1]): 5.07 ± 0.49%; percentage of EdU-negative (hTERT-HMEC; [2]): 5.75 ± 0.65%
MGLWGQSVPTASSARAGRYPGARTASGTRPWLLDPKILKFVVFIVAVLLPVRVDSATIPRQDEVPQQTVAPQQQRRSLKEEECPAGSHRSEYTGACNPCTEGVDYTIASNNLPSCLLCTVCKSGQTNKSSCTTTRDTVCQCEKGSFQDKNSPEMCRTCRTGCPRGMVKVSNCTPRSDIKCKNESAASSTGKTPAAEETVTTILGMLASPYHYLIIIVVLVIILAVVVVGFSCRKKFISYLKGICSGGGGGPERVHRVLFRRRSCPSRVPGAEDNARNETLSNRYLQPTQVSEQEIQGQELAELTGVTVELPEEPQRLLEQAEAEGCQRRRLLVPVNDADSADISTLLDASATLEEGHAKETIQDQLVGSEKLFYEEDEAGSATSCL [Q9UBN6] | 24 ± 0.81 | 24.3 ± 2 | 4.16 ± 0.28 | 4.86 ± 0.69 | –
MGPGRPAPAPWPRHLLRCVLLLGCLHLGRPGAPGDAALPEPNVFLIFSHGLQGCLEAQGGQVRVTPACNTSLPAQRWKWVSRNRLFNLGTMQCLGTGWPGTNTTASLGMYECDREALNLRWHCRTLGDQLSLLLGARTSNISKPGTLERGDQTRSGQWRIYGSEEDLCALPYHEVYTIQGNSHGKPCTIPFKYDNQWFHGCTSTGREDGHLWCATTQDYGKDERWGFCPIKSNDCETFWDKDQLTDSCYQFNFQSTLSWREAWASCEQQGADLLSITEIHEQTYINGLLTGYSSTLWIGLNDLDTSGGWQWSDNSPLKYLNWESDQPDNPSEENCGVIRTESSGGWQNRDCSIALPYVCKKKPNATAEPTPPDRWANVKVECEPSWQPFQGHCYRLQAEKRSWQESKKACLRGGGDLVSIHSMAELEFITKQIKQEVEELWIGLNDLKLQMNFEWSDGSLVSFTHWHPFEPNNFRDSLEDCVTIWGPEGRWNDSPCNQSLPSICKKAGQLSQGAAEEDHGCRKGWTWHSPSCYWLGEDQVTYSEARRLCTDHGSQLVTITNRFEQAFVSSLIYNWEGEYFWTALQDLNSTGSFFWLSGDEVMYTHWNRDQPGYSRGGCVALATGSAMGLWEVKNCTSFRARYICRQSLGTPVTPELPGPDPTPSLTGSCPQGWASDTKLRYCYKVFSSERLQDKKSWVQAQGACQELGAQLLSLASYEEEHFVANMLNKIFGESEPEIHEQHWFWIGLNRRDPRGGQSWRWSDGVGFSYHNFDRSRHDDDDIRGCAVLDLASLQWVAMQCDTQLDWICKIPRGTDVREPDDSPQGRREWLRFQEAEYKFFEHHSTWAQAQRICTWFQAELTSVHSQAELDFLSHNLQKFSRAQEQHWWIGLHTSESDGRFRWTDGSIINFISWAPGKPRPVGKDKKCVYMTASREDWGDQRCLTALPYICKRSNVTKETQPPDLPTTALGGCPSDWIQFLNKCFQVQGQEPQSRVKWSEAQFSCEQQEAQLVTITNPLEQAFITASLPNVTFDLWIGLHASQRDFQWVEQEPLMYANWAPGEPSGPSPAPSGNKPTSCAVVLHSPSAHFTGRWDDRSCTEETHGFICQKGTDPSLSPSPAALPPAPGTELSYLNGTFRLLQKPLRWHDALLLCESRNASLAYVPDPYTQAFLTQAARGLRTPLWIGLAGEEGSRRYSWVSEEPLNYVGWQDGEPQQPGGCTYVDVDGAWRTTSCDTKLQGAVCGVSSGPPPPRRISYHGSCPQGLADSAWIPFREHCYSFHMELLLGHKEARQRCQRAGGAVLSILDEMENVFVWEHLQSYEGQSRGAWLGMNFNPKGGTLVWQDNTAVNYSNWGPPGLGPSMLSHNSCYWIQSNSGLWRPGACTNITMGVVCKLPRAEQSSFSPSALPENPAALVVVLMAVLLLLALLTAALILYRRRQSIERGAFEGARYSRSSSSPTEATEKNILVSDMEMNEQQE [Q9UBG0] | – | – | – | – | percentage of EdU-negative (MCF7; [4]): 25.5 ± 1.7%; percentage of EdU-negative (MCF7; [5]): 24.5 ± 0.7%; percentage of EdU-negative (hTERT-HMEC; [4]): 4.54 ± 0.35%; percentage of EdU-negative (hTERT-HMEC; [5]): 6.08 ± 1.1%
MGPISAPSCRWRIPWQGLLLTASLFTFWNPPTTAQLTIEAVPSNAAEGKEVLLLVHNLPQDPRGYNWYKGETVDANRRIIGYVISNQQITPGPAYSNRETIYPNASLLMRNVTRNDTGSYTLQVIKLNLMSEEVTGQFSVHPETPKPSISSNNSNPVEDKDAVAFTCEPETQNTTYLWWVNGQSLPVSPRLQLSNGNRTLTLLSVTRNDVGPYECEIQNPASANFSDPVTLNVLYGPDAPTISPSDTYYHAGVNLNLSCHAASNPPSQYSWSVNGTFQQYTQKLFIPNITTKNSGSYACHTTNSATGRNRTTVRMITVSDALVQGSSPGLSARATVSIMIGVLARVALI | 25.7 ± 1.8 | 27.4 ± 2.2 | 5.19 ± 1.8 | 9.55 ± 1.5 | –
MGPLINRCKKILLPTTVPPATMRIWLLGGLLPFLLLLSGLQRPTEGSEVAIKIDFDFAPGSFDDQYQGCSKQVMEKLTQGDYFTKDIEAQKNYFRMWQKAHLAWLNQGKVLPQNMTTTHAVAILFYTLNSNVHSDFTRAMASVARTPQQYERSFHFKYLHYYLTSAIQLLRKDSIMENGTLCYEVHYRTKDVHFNAYTGATIRFGQFLSTSLLKEEAQEFGNQTLFTIFTCLGAPVQYFSLKKEVLIPPYELFKVINMSYHPRGDWLQLRSTGNLSTYNCQLLKASSKKCIPDPIAIASLSFLTSVIIFSKSRV | 23.9 ± 0.46 | 27.2 ± 0.8 | 5.08 ± 0.63 | 6.69 ± 0.27 | –

From the supplement of paper PMC11316812
